Experimental data taken from the RNAGym collection of RNA variant scans (doi:10.1073/pnas.2313332121).
Fewer inactive variants are shown than the library holds.

B1: TPR 5TU (parent)
chain: GGAUCUUCUCGAUCUAACAAAAAAGACAAAUCUGCCACAAAGCUUGAGAGCAUCUUCGGAUGCAGAGGCGGCAGCCUUCGGUGGCGCGAUAGCGCCAACGUUCUCAACUAUGACACGCAAAACGCGUGCUCCGUUGAAUGGAGUUUAUCAUG

Variants of: B1
Test: polymerase ribozyme fitness, log enrichment relative to wild type (log ratio); higher = more active; in vitro selection for triplet polymerase activity
Outline: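 A single round of triplicate in vitro selection, including frozen incubation at −7 °C, was applied to PCR-built, transcribed mutant libraries of each subunit of a heterodimeric triplet polymerase ribozyme. Illumina sequencing of input and output libraries retained genotypes with ≥10 input reads and ≥1 read per output. Fitness is the base-2 logarithm of genotype enrichment divided by wild-type enrichment, from inverse-variance-weighted replicate averages.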

Row | Variant | polymerase ribozyme fitness (log ratio)
1 | GGAUCUUCUCGAUCUAGCAAAAAAGACAAAUCUGCCACACAGCUUGACAGCAUCUUCGGAUGCAGAGGCGGCAGCCUUCGGUGGCGCGAUAGCGCCAACGUUCUCAACUAUGACACGCAAAACGCGUGCUCCGUUGAAUGGAGUUUAUCAUG [A17G A40C G48C] | -1.5
2 | GGAUCUUCUCGAUCUACCAAAAAAGACAAAUCUGCCACAAAGCUUGAGAGCAUCGUAGCAUGCAGAGGCGGCAGCCUUCGGUGGAGCGAUAGCGCCAACGUUCUCAACUAUGACGCGCUAAACGCGUGCUCCGUUGAAUGGAGUUUAUCAUG [A17C U55G C57A G59C C85A A115G A119U] | -2.46
3 | GGAUCUUCUCGAUCUAGCAACAAAGACAAAUCUGCCACAAAGCUUGAGAGCAUCUUCGGAUGCAGAGGCGGCAGCCUUCGGUGGCGCGAUAGCGCCAACGUUCUCAACUAUGACAUGCAAAACGCGUGCUCCGUUGAAUGGAGUUUAUCAUG [A17G A21C C116U] | 0.03
4 | GGAUCUUCUCGAUCUAGCAAAAAAGACAAAUCUGCCAUAAAGCUUGAGAGCAUCUUCGGAUGCAGAGGCGGCAGCCUUCGAUGGCGCGAUAGCGCAAACGUUCUCAACUAUGACACGCAAAACGCGUGCUCCGUUGAAUGGAGUUUAUCAUG [A17G C38U G81A C96A] | 0.341
5 | GGAUCUUCUCGAUCUAGCAAAAAAGACAAAUCUGCCACAAAGCUUGAGAGCAUCUUCGGAUGCAGAGGCGGAAGCCGUUGGUGGCGCGAUAGCGCCAACGUUCUCAACGAUGACACGCAAAACGCGUGCUCCGUUGAAUGGAGUUUAUCAUG [A17G C72A U77G C79U U109G] | ≤ -4.2
6 | GGAUCUUCUCGAUCUAGCAAGAAAGACAAAUCUGCCACAAAGCUUGAGAGCUUCUACGGAUGCAGAGGCGGCAGCCUUCGGUGGCGCGAUGGCGCCAACGUUCUCAACUAUGACACGCAAAACGCGUGCUCCGUUGAAUGGAGUUUAUCAUG [A17G A21G A52U U56A A91G] | -4
7 | GGAUCUUCUCGAUCUAGCAAAAAAGACAAAUCUGCCAGAAAGCUUGAGAGAAUCUUCGGAUGCAGAGGCGGCAGCCUGCGGUGGCGCGAGAGCGCCAACGUUCUCAACUAUGACACGCAAAACGCGUGCUACGUUGAAUGGAGUUUAUCAUG [A17G C38G C51A U78G U90G C131A] | ≤ -4.2
8 | GGAUCUUCUCGAUCUAGCAAAAAAGACAAAUCUGCCACAAAGCUUGAGAGCAUCUUCGGAUGCAGAGGCGGCAGCCUUACGUGGCGCGAUAGCGCCAACGUUCUCAACCAUGACACGCAAAACGCGUGCUCCGUUGAAUGGAGUUUAUCAUG [A17G C79A G80C U109C] | ≤ -4.2
9 | GGAUCUUCUCGAUCUAGCAAAAAAGACAAAUCUGCCACAAAGCUUGAGAGCAUCUUCGGAUGCAGAGGCGGCAGCCUUCGGUGGCGCGAUAGAGCCAACGUUCUCGACUAUGACACGCAAAACGCGUGCUCCGUUGAAUGGAGUUUAUCAUG [A17G C93A A106G] | -1.94
10 | GGAUCUUCUCGAUCUAGCAAAAAAGACAAAUCUGCCACAAAGCUUGAGAGCUUCUUCGGAUGCUAAGGCGGCAGCCUUCGGUGGCCCGAUAGCGCCAACGUUCUCACCUAUGACACGCAAAACGCGUACUCCGUUGAAUGGAGUUUAUCAUG [A17G A52U A64U G65A G86C A107C G128A] | ≤ -4.2
11 | GGAUCUUCUCGAUCUAGCCAAAAAGACAAAUCUGCCACAAAGCUUGAGAGCAUCUUCGGAUGCAGAGGCGGCAGCCUUCCGUGGCGCGAUAACGCCAACGUUCUCAACUAUGACAUGCAAAACGCGUGCUCCGUUCAAUAGAGUUUAUCAUG [A17G A19C G80C G92A C116U G136C G140A] | ≤ -4.2
12 | GGAUCUUCUCGAUCUAGCAAAAAAGCCAAAUUUGCCACAAAGCUUGAGAGCAUCUUCGAAUGCAGAGGCGGCAGUCUUCGGUGGCGCGAUAGCGCCAACGUUCUCAACUAUGACACGCAAAACGCGUGCUCCGUUGAAUGGAGUUUAUCAUG [A17G A26C C32U G59A C75U] | ≤ -4.2
13 | GGAUCUUCUCGAUCUAGCAAAAAAGACAAAUCUGCCUCAAAGCUUGAGAGUAUCUUCGGAUGCAGAGGCGGCAGCCUUCGGUGGCGCGAUAGCGCCAACGUUCUCAACUAUGACACGCAAAACGCGUGCUCCGUUGAAUGGAGUUUAUCAUG [A17G A37U C51U] | -2.83
14 | GGAUCUUCUCGAUCUAGCAAAGAAGACAAAUCUGCCACAAAGCUUGAGAGCAUCUACGGAUGCAGAGGCGGCAGCCUUCGGUGGCGCGAUAGCGCCAACGUUCUCAACUAUGACACGCAAAACGCGUGCUCCGUUGAAUGGAGUUUAUCAUG [A17G A22G U56A] | 0.0483
15 | GGAUCUUCUCGAUCUAGCAAAAAAGACAAAUCUGCCUCAAAGCUUGAGAGCAUCUUCGGAUGCAGAGGCGGCAGCCUUCGGCGGCGCGAUAGCGCAAACGUUCUCAACUAUGACACGCAAAACGCGUGCUCCGUUGAAUGGAGUUUAUCAUG [A17G A37U U82C C96A] | -2.2
16 | GGAUCUUCUCGAUCUAGCAAAAAAGAUAAAUCUGCCACAAAGCUUGAGUGCAUCUUCGGAUGCAGAGGCGGCAGCCUUAGGUUGCGUGAUAGCGCCAACGUUCUCAACUAUGACACGCAUAACGCGUGCUCCGUUGAAUGGAGUUUAUCAUG [A17G C27U A49U C79A G83U C87U A120U] | ≤ -4.2
17 | GGAUCUUCUCGAUCUAGCAAAAAAGACAAAUCUGCCACAAAGCUUGAGAGCCUCUUCGGAUGCAGAGGCGGCAGCCUUCGGUGGCGCGAUAGCGCCAACGUUCUCAACUAUGACACGCAAAACGCGUGCUCCGUUGAAUGGAGUUUAUCAUG [A17G A52C] | -0.98
18 | GGAUCUUCUCGAUCUAGCAAAAACGACAAAUCUGCCACAAUGCUUGAGAGCAUCUUCGGAUGCAGAGGCGGCAGCCUUCGGUGGCGCGAUUGCGCCAGCGUUCUCAACUAUGACACGCAAAACGCGUGCUCCGUUGAAUGGAGUUUAUCAUG [A17G A24C A41U A91U A98G] | ≤ -4.2
19 | GGAUCUUCUCGAUCUACCAAAAAAGACAAAUCUGCCACAAAGCUUGAGAGCAACUUCGGAUGCAGAGGCGCCAGCCUUCGGUAGCGCGAUUGAGCCAACGUUCUCAAUUAUGACACGCAAAACGCGGGCUCCGUUGAAUGGAGUUUAUCAUG [A17C U53A G71C G83A A91U C93A C108U U127G] | ≤ -4.2
